Source: paper PMC3842841, “VacA, the vacuolating cytotoxin of Helicobacter pylori, binds to multimerin 1 on human platelets” (Thrombosis Journal, 2013)

Molecular target: T1, VacA, the vacuolating cytotoxin of Helicobacter pylori (Helicobacter pylori ATCC49503, UniProt Q48245 34-854)
T1 sequence: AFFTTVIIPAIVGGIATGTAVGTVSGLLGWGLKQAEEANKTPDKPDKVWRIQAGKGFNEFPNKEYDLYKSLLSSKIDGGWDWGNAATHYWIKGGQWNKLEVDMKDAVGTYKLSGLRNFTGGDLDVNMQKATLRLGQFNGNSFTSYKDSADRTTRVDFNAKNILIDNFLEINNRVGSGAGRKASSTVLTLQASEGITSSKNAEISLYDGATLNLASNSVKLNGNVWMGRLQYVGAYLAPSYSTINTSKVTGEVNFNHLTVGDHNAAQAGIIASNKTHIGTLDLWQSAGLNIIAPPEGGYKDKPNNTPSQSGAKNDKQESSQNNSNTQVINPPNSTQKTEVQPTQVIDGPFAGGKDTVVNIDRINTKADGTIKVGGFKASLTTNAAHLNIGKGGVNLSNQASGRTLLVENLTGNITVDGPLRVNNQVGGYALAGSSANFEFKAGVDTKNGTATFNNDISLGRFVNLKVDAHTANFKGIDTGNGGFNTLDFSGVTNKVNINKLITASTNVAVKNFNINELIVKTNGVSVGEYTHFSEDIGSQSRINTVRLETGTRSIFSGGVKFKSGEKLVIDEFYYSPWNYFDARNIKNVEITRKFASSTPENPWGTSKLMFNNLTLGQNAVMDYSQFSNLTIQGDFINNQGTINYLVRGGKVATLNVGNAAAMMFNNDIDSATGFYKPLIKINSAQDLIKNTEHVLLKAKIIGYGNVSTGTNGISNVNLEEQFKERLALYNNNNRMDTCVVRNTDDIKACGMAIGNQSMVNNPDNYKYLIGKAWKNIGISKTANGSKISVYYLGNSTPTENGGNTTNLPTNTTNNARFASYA
Experiment: SPR; BIAcore X, 25°C; GST-MMRN1 amine-coupled to a CM5 chip; VacA in PBS with 1 mM Ca++ perfused at 20 μL/min; control surface subtracted
Settings: both partners purified

B1: Glutathione S-transferase (GST)-fusion protein of multimerin 1 (291a.a. ~ 391a.a.) (domain or fragment)
chain: IHTNQAESHTAVGRGVAEQQQQQGCGDPEVMQKMTDQVNYQAMKLTLLQKKIDNISLTVNDVRNTYSSLEGKVSEDKSREFQSLLKGLKSKSINVLIRDIV
notes: multimerin 1 (MMRN1), residues 291-391; also called GST-MMRN1; GST-fusion protein of partial MMRN1 (291aa-391aa); source: bought: Abnova Corporation
B1 was tested, and the Kd was 33 nM.
